Assay results taken from FireProtDB (doi:10.1110/ps.0237703).

Details: pH 8, Thermal, CD, Bis-Tris propane ammonium acetate 0.05 M 0.05 M, reversible: No, whole UniProt chain shown

B1: wild type, Q8NJZ1 (protein)
chain: MKANIVILSLFAPLAAVAQTLCGQYSSNTQGGYIFNNNMWGMGSGSGSQCTYVDKVWAEGVAWHTDWSWSGGDNNVKSYPYSGRELGTKRIVSSIKSISSGADWDYTGSNLRANAAYDIFTSANPNHATSSGDYEVMIWLGRYGGVYPIGNSIGTVRAAGRDWALHIGYNGAMKVFSFVAANPVTRFDGEIMDFFYLLRDMQGYPMTSQYLLTLQFGTEPFTGSGAKFNCWYFGATLSYW
B1 gave a Tm (Bionectria ochroleuca) of 45.9 °C.

B2: wild type, Q8NJY6 (protein)
chain: MKFLQVLPAILPAALAQTSCDQYATFSGNGYIVSNNLWGASAGSGFGCVTSVSLNGAASWHADWQWSGGQNNVKSYQNVQINIPQKRTVNSIGSMPTTASWSYSGSDIRANVAYDLFTAANPNHVTYSGDYELMIWLGKYGDIGPIGSSQGTVNVGGQTWTLYYGYNGAMQVYSFVAQSNTTSYSGDVKNFFNYLRDNKGYNAGGQYVLSYQFGTEPFTGSGTLNVASWTASIN
In the case of B2, the Tm (Trichoderma citrinoviride) is reported as 49.2 °C.

B3: wild type, O00095 (protein)
chain: MKFLQVLPALIPAALAQTSCDQWATFTGNGYTVSNNLWGASAGSGFGCVTAVSLSGGASWHADWQWSGGQNNVKSYQNSQIAIPQKRTVNSISSMPTTASWSYSGSNIRANVAYDLFTAANPNHVTYSGDYELMIWLGKYGDIGPIGSSQGTVNVGGQSWTLYYGYNGAMQVYSFVAQTNTTNYSGDVKNFFNYLRDNKGYNAAGQYVLSYQFGTEPFTGSGTLNVASWTASIN
Protein B3 has a Tm (Hypocrea jecorina) of 54.4 °C.
